Results: US20210054055A1

B1: Anti-ZIKV clone DT168(A)-D1_G-9E (G9E) (antibody, V domains shown)
VH: EVQLVESGGGVVQPGRSLRLSCVASGFAFSNYHMHWVRQAPGKGLEWVAIIWDDGSDQYYADSVKGRFTISRDNSKNTLFLQMNRLRAEDTALYYCVGGSSAYNGDNGWREAASLDDWGQGTLVTVSS
VL: QSALTQPASVSGSPGQSITIFCSGSSNDVGGYNYVSWYQQYPGKVPKLLIYDVNSRPSGVSNRFSGSKSGNTASLTISGLQAEDEADYYCSSYTSRRTWVFGGGTIVTVL
B2: Anti-ZIKV clone DT168(A)-D1_A-9E (A9E) (antibody, V domains shown)
VH: EVQLLESGGGLVQAGGSLRLSCAASGFTFDTYAMSWVRQPPGKGLEWVSAISTGGGSKYYADSVKGRLTISRDNSQNTLYLQMSSLRADDTAVYYCARSDFWRSGRYYYYMDVWGRGTTVTVSS
VL: QSALTQPASVSASPGQSITISCTGTHFDIVDYDYLSWYQQHPGNAPKLLIYGVSNRPSGVSSRFSGSKSGNTASLTISGLQAEDEGDYYCSSYSISSTLLVFGGGTKLSV

Target: Dengue virus serotype 4 (DENV4) virions, envelope protein E (Dengue virus 4)

Row | Binder | FRNT50 (focus reduction neutralization on Vero cells)
1 | B1 | > 10000 ng/mL
2 | B2 | > 10000 ng/mL
